Measurements reported in the supplement of paper PMC5949888.

System: Saccharomyces cerevisiae PS128 hsf1 delta, HSF1(1-493) fusion
Experiment: growth estimate (transactivation domain function in HSF1 fusion, heat-shock survival) (a.u. (slope of normalised read count over time)); higher = stronger growth at 37°C, i.e. more transactivation activity
Details: library: design library
In short: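 The growth estimate is the slope, from a robust linear fit over time, of read counts scaled to sample totals and starting count. These counts came from Illumina MiSeq sequencing of PCR-amplified inserts, run as six barcoded replicates of one experiment. The inserts encoded designed transactivation-domain oligos fused to yeast HSF1 (amino acids 1–493) in an hsf1-deleted strain, replica-plated on –trp 5-FOA plates and incubated at 30°C or 37°C for 0, 2, 4, 6 and 8 days.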

VARDIWEELLSEDL
growth estimate: 2.59

EDDDEFSLWASML
growth estimate: 2.21

DFDLDMLGDFDLDMPG
growth estimate: 17.2

ERDDEFSLWDSML
growth estimate: 0.267

MLSSHGFSVDTSALLDLFGP
growth estimate: -0.17

AQNGEIAQLWDFN
growth estimate: -0.205

EDLYSILGSDVY
growth estimate: < -0.25

MLSSHGFSVDTSALLDLFAP
growth estimate: -0.0921

QQRGEIAQLWDFN
growth estimate: < -0.25

DFDLDMLGDFDLDKLG
growth estimate: -0.158

EDDDEFPLWDSML
growth estimate: 0.199

PFPGTQDDFLKWWRSEEAQ
growth estimate: < -0.25

MLGSHGFSVDTSALLDLFSP
growth estimate: 0.0043

EDLYSILKSDVY
growth estimate: < -0.25

LFDYDFLFGADFA
growth estimate: 1.91

EDLYSILWSAVY
growth estimate: -0.107

EFNDLLDLDFILSK
growth estimate: 0.632

EFNDLLDLDFALSN
growth estimate: 3.84

DELSWRIELLEKDG
growth estimate: -0.216

EFNDLLDLRFILSN
growth estimate: < -0.25

QGNGEIAQLWDFN
growth estimate: < -0.25

EDDDEFALWDSML
growth estimate: 0.128

DELSKIIELLEKDG
growth estimate: < -0.25

DELSWIIELLEKKG
growth estimate: < -0.25

MLSSHGFGVDTSALLDLFSP
growth estimate: -0.0322

TMDDVYNYLFDK
growth estimate: -0.18

PDLYSILWSDVY
growth estimate: -0.202

MLSSHGFSVDTSALLPLFSP
growth estimate: -0.158

PEFPGIELQELQEKQALLQQ
growth estimate: < -0.25

VADRIWEELLSEDL
growth estimate: -0.176

DFDLDMLGDFDLPMLG
growth estimate: 1.24

EDDDEASLWDSML
growth estimate: < -0.25

QQNGEIAQAWDFN
growth estimate: < -0.25

QQNGEIAQLWDFA
growth estimate: < -0.25

EDDDEFSLWDSKL
growth estimate: < -0.25

TPDDVYNYLFDD
growth estimate: < -0.25

DFDLDMLGDFDLDMLK
growth estimate: 1.65

DKDLDMLGDFDLDMLG
growth estimate: -0.127

PFPDTQDDFLKWWRSEPAQ
growth estimate: -0.225

PEFPKIELQELQELQALLQQ
growth estimate: < -0.25

PEGPGIELQELQELQALLQQ
growth estimate: < -0.25

GFDYDFLFGNDFA
growth estimate: 8.74

QQNAEIAQLWDFN
growth estimate: < -0.25

QQNGEIAQRWDFN
growth estimate: < -0.25

PEFGGIELQELQELQALLQQ
growth estimate: < -0.25

LFDYDFLAGNDFA
growth estimate: 0.0054

DLDESWDYIFERTE
growth estimate: 0.415

TRDDVYNYLFDD
growth estimate: -0.222

EDDDAFSLWDSML
growth estimate: 0.237

EDLYSILWSPVY
growth estimate: -0.241

MLSSHGFSVDTSALLDLFRP
growth estimate: -0.22

PFPDTQDDRLKWWRSEEAQ
growth estimate: -0.109

EFNDLLDLDFILPN
growth estimate: 10.7

PEFPGIELQELQALQALLQQ
growth estimate: < -0.25

KELSWIIELLEKDG
growth estimate: -0.245

EDDDEGSLWDSML
growth estimate: < -0.25

EDLYSILWRDVY
growth estimate: -0.193

RADDIWEELLSEDL
growth estimate: 0.445

DFDLDMLGDFDLDMGG
growth estimate: 16.5

MLSSHGFSVDGSALLDLFSP
growth estimate: -0.0946

EDLYSIPWSDVY
growth estimate: -0.196

DFDLDMLGDFRLDMLG
growth estimate: 0.535

EDLYSILWSDVK
growth estimate: 0.0539

DFDRDMLGDFDLDMLG
growth estimate: 1.31

DLPESWDYIFETTE
growth estimate: -0.108

EDLYSGLWSDVY
growth estimate: -0.186

RFDYDFLFGNDFA
growth estimate: 2.62

EFNDLLDLDFIGSN
growth estimate: 2.81

PEFPGIELQELQELAALLQQ
growth estimate: 0.178

AFDLDMLGDFDLDMLG
growth estimate: 1.88

EFNDLLDLDFILKN
growth estimate: 2.1

PEFPGIEAQELQELQALLQQ
growth estimate: -0.167

PFPDTQDDFLKWARSEEAQ
growth estimate: 0.0578

PEFPGIELQELQELQAALQQ
growth estimate: -0.23

MLSSHGFSVDTSALRDLFSP
growth estimate: -0.196

PFPDTQDDFLKWWRGEEAQ
growth estimate: 0.0794

GDDDEFSLWDSML
growth estimate: 1.64

EDDDEFSLPDSML
growth estimate: -0.126

VADDKWEELLSEDL
growth estimate: -0.236

VAADIWEELLSEDL
growth estimate: 1.83

DELSWIIELLEKAG
growth estimate: < -0.25

DADLDMLGDFDLDMLG
growth estimate: 0.604

MLSSHGFSVDTSAGLDLFSP
growth estimate: -0.207

LFDYDFKFGNDFA
growth estimate: -0.229

MLASHGFSVDTSALLDLFSP
growth estimate: -0.0319

VADDIWKELLSEDL
growth estimate: 3.97

AFDYDFLFGNDFA
growth estimate: 10.5

QQNGEPAQLWDFN
growth estimate: -0.235

DELSWIPELLEKDG
growth estimate: -0.091

EDPYSILWSDVY
growth estimate: 0.731

QQAGEIAQLWDFN
growth estimate: < -0.25

PLSSHGFSVDTSALLDLFSP
growth estimate: 0.0027

PEFPGIELQELQELQALLAQ
growth estimate: < -0.25

DFDLDMLGDFDPDMLG
growth estimate: 10.6

EDDGEFSLWDSML
growth estimate: 0.47

DELSWIIELLAKDG
growth estimate: -0.221

QQNGERAQLWDFN
growth estimate: -0.0438

PFPDTQDDFRKWWRSEEAQ
growth estimate: -0.247

PFPDTQDDFLKWWRSEGAQ
growth estimate: -0.0427

MLSKHGFSVDTSALLDLFSP
growth estimate: -0.229

LFDYDFGFGNDFA
growth estimate: 1.76

EDDDEFSLWPSML
growth estimate: -0.166

MLSSHGFSVDRSALLDLFSP
growth estimate: -0.204

PEFPGIELQELQELQKLLQQ
growth estimate: < -0.25

VADDIWEELLSPDL
growth estimate: 0.482

KQNGEIAQLWDFN
growth estimate: < -0.25

LFDYDFLFGKDFA
growth estimate: 2.49

DFDLDGLGDFDLDMLG
growth estimate: 2.75

PEFPGIEGQELQELQALLQQ
growth estimate: < -0.25

DLDEGWDYIFETTE
growth estimate: 0.787

VADDIWEELLSRDL
growth estimate: 6.53

GELSWIIELLEKDG
growth estimate: -0.152

TMDDVYNYLRDD
growth estimate: < -0.25

DELRWIIELLEKDG
growth estimate: 0.0232

VADDIWEELLAEDL
growth estimate: 2.64

PQNGEIAQLWDFN
growth estimate: -0.229

PFPDTGDDFLKWWRSEEAQ
growth estimate: -0.0916

LFDYDFLPGNDFA
growth estimate: -0.232

TMDDVYNYLFRD
growth estimate: -0.0803

DFDLDMRGDFDLDMLG
growth estimate: 1.6

EDDDEFGLWDSML
growth estimate: 0.402

PKPDTQDDFLKWWRSEEAQ
growth estimate: -0.158

PFPDTQDDFLKPWRSEEAQ
growth estimate: < -0.25

PEFPGIELQELQERQALLQQ
growth estimate: < -0.25

DFDLDMLGDFDLRMLG
growth estimate: 0.112

LFDYDFLFKNDFA
growth estimate: 2.06

DLDESGDYIFETTE
growth estimate: -0.129

EDDDEFSLADSML
growth estimate: -0.236

DELSWIIGLLEKDG
growth estimate: -0.0196

EDDDERSLWDSML
growth estimate: < -0.25

DELSWIGELLEKDG
growth estimate: -0.125

PFPPTQDDFLKWWRSEEAQ
growth estimate: -0.215

GQNGEIAQLWDFN
growth estimate: < -0.25

EFNDLLDLDFIPSN
growth estimate: 0.874

EDDDEFSLWDSAL
growth estimate: < -0.25

MLSSHGFSVDPSALLDLFSP
growth estimate: -0.0885

PFPDTQDRFLKWWRSEEAQ
growth estimate: < -0.25

EFNDLLDLDFILGN
growth estimate: 4.09

DELSWKIELLEKDG
growth estimate: < -0.25

DELSWIIELLGKDG
growth estimate: -0.173

VADDIWEALLSEDL
growth estimate: 8.8

MLSSPGFSVDTSALLDLFSP
growth estimate: 0.169

VADDIWEPLLSEDL
growth estimate: -0.234

VADDIWERLLSEDL
growth estimate: 2.04

QQNKEIAQLWDFN
growth estimate: -0.241

MLSSHGFSPDTSALLDLFSP
growth estimate: 0.374

DLRESWDYIFETTE
growth estimate: -0.213

TMDDVYNYLFDG
growth estimate: 0.0766

GLDESWDYIFETTE
growth estimate: 1.28

PFPDTQDDPLKWWRSEEAQ
growth estimate: < -0.25

PFPDTQKDFLKWWRSEEAQ
growth estimate: < -0.25

MLSSHGFSADTSALLDLFSP
growth estimate: -0.026

DELSWIIEGLEKDG
growth estimate: < -0.25

DLDESWDYIFETTP
growth estimate: 3.58

TMDDAYNYLFDD
growth estimate: -0.228

MLSSHGFSVDTSALLDLPSP
growth estimate: < -0.25

EDLYSILWSDVY
growth estimate: 0.971

EFNDLLDLAFILSN
growth estimate: -0.217

VADDIWEELLSEKL
growth estimate: 3.04

EDLKSILWSDVY
growth estimate: < -0.25

DELSWPIELLEKDG
growth estimate: 0.046

PEFKGIELQELQELQALLQQ
growth estimate: < -0.25

LFDYDGLFGNDFA
growth estimate: 0.114

LFDYGFLFGNDFA
growth estimate: 1.29

PADDIWEELLSEDL
growth estimate: 2.99

PFPDTQDDFLKWWGSEEAQ
growth estimate: 1.82

EDDDEFSLWDSMA
growth estimate: -0.238

EDPDEFSLWDSML
growth estimate: 1.36

PFPDTQDDFLKWWRKEEAQ
growth estimate: -0.247

PFPDTQDDFLKWWASEEAQ
growth estimate: 4.59

DLDESWDYIFGTTE
growth estimate: 0.717

VADDIWEELLSEGL
growth estimate: 10.4

DELSWIIELLERDG
growth estimate: 1.05

EDDDEFKLWDSML
growth estimate: 0.0998

DLDESWDYIGETTE
growth estimate: -0.243

PEFPGKELQELQELQALLQQ
growth estimate: < -0.25

TGDDVYNYLFDD
growth estimate: -0.0152

KFDYDFLFGNDFA
growth estimate: 1.06

EDLGSILWSDVY
growth estimate: -0.0522

QKNGEIAQLWDFN
growth estimate: < -0.25

TMDDPYNYLFDD
growth estimate: -0.0775

MLSSHGFAVDTSALLDLFSP
growth estimate: -0.142

QQNGEIAQLWGFN
growth estimate: < -0.261

EDDDEFSLWDSMR
growth estimate: -0.239

PEFPGIEKQELQELQALLQQ
growth estimate: 0.269

PFPDTKDDFLKWWRSEEAQ
growth estimate: < -0.25

TMDDVYNYLKDD
growth estimate: < -0.25

QQNGEIAQKWDFN
growth estimate: 0.0645

DFDLDMLGDFDADMLG
growth estimate: 21.1

VADDIWEELLGEDL
growth estimate: 2.11
